Results on seven molecules are retold here after patent US20220387557A1 (OXFORD UNIVERSITY INNOVATION, published 2022).

Numbering of substitutions follows the chain as printed.

T1: Fc tagged human TNFR1 (Sino Biological) (human, UniProt P19438 22-211, limits assumed)
T1 construct: Bought reagent; also called hTNFR1; hTNFR1-Fc; not shown: Fc tag of the bought protein
T1 sequence (looked up): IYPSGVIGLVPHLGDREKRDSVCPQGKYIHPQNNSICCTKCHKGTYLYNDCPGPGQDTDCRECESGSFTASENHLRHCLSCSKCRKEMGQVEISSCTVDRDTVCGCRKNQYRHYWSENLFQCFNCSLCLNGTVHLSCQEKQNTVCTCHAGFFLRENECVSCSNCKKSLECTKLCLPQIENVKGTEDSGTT

T2: Fc tagged mouse TNFR1 (Sino Biological) (mouse, UniProt P25118 22-212, limits assumed)
T2 construct: Bought reagent; also called mTNFR1; mTNFR1-Fc; not shown: Fc tag of the bought protein
T2 sequence (looked up): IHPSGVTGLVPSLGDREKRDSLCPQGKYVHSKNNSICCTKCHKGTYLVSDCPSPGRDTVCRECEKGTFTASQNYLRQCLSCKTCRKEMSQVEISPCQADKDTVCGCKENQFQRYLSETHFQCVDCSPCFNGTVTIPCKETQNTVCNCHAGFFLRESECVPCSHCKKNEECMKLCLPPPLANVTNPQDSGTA

T3: Fc tagged mouse TNFR2 (Sino Biological) (mouse, UniProt P25119 23-258)
T3 construct: Bought reagent; also called mTNFR2; mTNF2; not shown: Fc tag of the bought protein
T3 sequence (looked up): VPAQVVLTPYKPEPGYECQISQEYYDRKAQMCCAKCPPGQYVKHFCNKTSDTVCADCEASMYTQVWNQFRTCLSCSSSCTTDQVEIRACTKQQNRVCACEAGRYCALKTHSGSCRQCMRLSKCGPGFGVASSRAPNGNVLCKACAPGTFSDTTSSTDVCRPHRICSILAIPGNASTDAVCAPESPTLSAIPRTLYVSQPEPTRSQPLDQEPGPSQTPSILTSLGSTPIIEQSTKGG

T4: Fc tagged human TNFR2 (Sino Biological) (human, UniProt P20333 23-257)
T4 construct: Bought reagent; also called hTNFR2; hTNFR2-Fc; not shown: Fc tag of the bought protein
T4 sequence (looked up): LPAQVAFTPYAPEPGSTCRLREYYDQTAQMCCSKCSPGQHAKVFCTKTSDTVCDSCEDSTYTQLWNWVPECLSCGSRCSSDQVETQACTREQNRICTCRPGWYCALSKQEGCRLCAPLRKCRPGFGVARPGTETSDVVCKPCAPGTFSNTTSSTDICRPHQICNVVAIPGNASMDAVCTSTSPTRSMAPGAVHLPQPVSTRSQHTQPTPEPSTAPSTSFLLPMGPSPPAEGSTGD

B1: TNF mutein B4 (ligand)
chain: VRSSSHTPSDKPVAHVVANPQAEGQLQWLNRRANALLANGVELRDNQLVVPSEGLYLIYSQVLFKGQGCPSTHVLLTHTISRISESHDGKVNLLSAIKSPCQRETPEGAEAKPWYEPIYLGGVFQLEKGDRLSAEINRPDYLDFAESGQVYFGIIAL
notes: Human TNF mutein, SESHDG at positions 84-89; not shown: C-terminal FLAG tag and His6 tag from vector pANT65
B2: TNF mutein B6 (ligand)
chain: B1 chain with H6R, S84T, E85G, S86T, H87Y, D88S, G89Y
notes: Human TNF mutein, TGTYSY at positions 84-89; not shown: C-terminal FLAG tag and His6 tag from vector pANT65
B3: TNF mutein F3 (ligand)
chain: B1 chain with H6R, S84T, E85T, S86T, H87Y, D88R, G89L, I155V
notes: Human TNF mutein, TTTYRL at positions 84-89; not shown: C-terminal FLAG tag and His6 tag from vector pANT65
B4: TNF mutein F7 (ligand)
chain: B1 chain with R2H, H6R, S86T, H87V, D88V, A134V
notes: Human TNF mutein, SETVVG at positions 84-89; not shown: C-terminal FLAG tag and His6 tag from vector pANT65
B5: TNF mutein C4 (ligand)
chain: B1 chain with H6R, E85H, H87V, D88E
notes: Human TNF mutein, SHSVEG at positions 84-89; not shown: C-terminal FLAG tag and His6 tag from vector pANT65
B6: TNF mutein B5 (ligand)
chain: B1 chain with R2H, H6R, S84T, E85G, S86T, H87Y, D88V, G89D
notes: Human TNF mutein, TGTYVD at positions 84-89; not shown: C-terminal FLAG tag and His6 tag from vector pANT65
B7: mouse TNF (mTNF), soluble protein expressed from pANT65 (ligand, UniProt P06804 80-235, looked up)
chain: LRSSSQNSSDKPVAHVVANHQVEEQLEWLSQRANALLANGMDLKDNQLVVPADGLYLVYSQVLFKGQGCPDYVLLTHTVSRFAISYQEKVNLLSAVKSPCPKDTPEGAELKPWYEPIYLGGVFQLEKGDQLSAEVNLPKYLDFAESGQVYFGVIAL
notes: not shown: C-terminal FLAG tag and His6 tag from vector pANT65

The target of one assay is T1, Fc tagged human TNFR1 (Sino Biological). Briefly: SPR, Biacore T200 single cycle kinetics, receptor-Fc captured on Protein A chip, TNF 1.67-15 nM. As for the experimental part: (§1) Single cycle kinetic analysis was performed using a Biacore T200 (serial no. 1909913) running Biacore T200 Evaluation Software V2.0.1 (Uppsala, Sweden). All experiments were run at 25° C. with HBS-P+ running buffer (pH 7.4) (GE Healthcare, Little Chalfont, UK).
(§2) Due to the limit in the number of available flow cells for analysis (three Fc per analysis, Fc2, Fc3 and Fc4, with Fc1 always being used as blank reference for non-specific subtraction), receptor binding was assessed in two separate overlapping runs using either: hTNFR1 (Fc2), hTNFR2 (Fc3) and mTNFR1 (Fc4), or; hTNFR1 (Fc2), […] and mTNFR2 (Fc4). Receptors were diluted in running buffer to a concentration of ˜4 μg/mL and at the start of each cycle loaded onto Fc2, Fc3 and Fc4 of a Protein A chip (GE Healthcare, Little Chalfont, UK) at a flow rate of 10 μL/min to give an RU of 40-100. The surface was then allowed to stabilise. Single cycle kinetic data was obtained at a flow rate of 45 μL/min. […] The association phase for the three injections of increasing concentrations of TNF was monitored for 240 seconds and a single dissociation phase was measured for 2700 seconds following the last injection of TNF. Regeneration of the Protein A surface was conducted using 10 mM glycine-HCl pH 1.5. The signal from the reference channel Fc1 (no receptor) was subtracted from that of Fc2, Fc3 and Fc4 to correct for differences in non-specific binding to a reference surface.
On the technique in general: SPR reads the build-up and loss of mass on a sensor chip optically.
The molecule B1 displayed a Kd of 0.0195 nM. This counts as picomolar.

B2 yielded a Kd of 0.0169 nM.

Take B3: binding was put at a Kd of 0.635 nM.

Take B4: the Kd was 0.0424 nM.

On to B5, for which the Kd was determined as 0.0129 nM. Compared with the last molecule, the Kd is about 3.3-fold lower.

B6 showed a dissociation constant (Kd) of 0.0199 nM.

The next assay deals with T2, Fc tagged mouse TNFR1 (Sino Biological). Described as above. As for the experimental part: as §1, §2
On to B1, for which the Kd was determined as 0.132 nM.

On to B2, for which the Kd worked out at 0.304 nM.

In turn, B3 displayed a Kd of 7.35 nM. Against the preceding molecule, the Kd is about 24-fold higher.

In the case of B4, binding was characterised by a dissociation constant (Kd) of 0.0827 nM.

Molecule B5 returned a Kd of 0.0323 nM.

As for B6, binding was characterised by a dissociation constant (Kd) of 0.128 nM.

The target in another assay is T1, Fc tagged human TNFR1 (Sino Biological). Briefly: SPR, Biacore single cycle kinetics, stability study, before freezing (t=0). The protocol:
as §2
(§3) At day zero (prior to freezing) and following thawing on ice after 3 months and 1 year the following assays were performed: [0341] SDS-PAGE [0342] OD280 nm [0343] Single cycle Biacore for binding to hTNFR1, hTNFR2 and mTNFR1
B2: the dissociation constant (Kd) was 0.0969 nM. This counts as picomolar.

Regarding B3, binding was characterised by a dissociation constant (Kd) of 0.012 nM.

B4 registered a Kd of 0.022 nM.

In the case of B6, the Kd was found to be 0.0355 nM.

The next assay deals with T2, Fc tagged mouse TNFR1 (Sino Biological). The assay is described as above. As for the experimental part: as §2, §3
In turn, B2 gave a dissociation constant Kd of 0.067 nM.

B3 gave a dissociation constant Kd of 0.11 nM. Against the preceding molecule, the Kd is about 1.6-fold higher.

B4: binding was put at a Kd of 0.116 nM. This Kd and that of the molecule before are within 1.5-fold of each other.

On to B6, for which binding was put at a Kd of 0.0771 nM. This Kd lies about 1.5-fold lower than the previous one.

The target in another assay is T1, Fc tagged human TNFR1 (Sino Biological). The experiment in a line: SPR, Biacore T200 multi cycle kinetics, receptor-Fc captured on Protein A chip, TNF 1.25-40 nM, 1:1 model. The protocol:
(§4) Multi cycle kinetics analysis of binding to hTNFR1, hTNFR2, mTNFR1 and mTNFR2 was performed on the 10 lead variants using a Biacore T200 (serial no. 1909913) instrument running Biacore T200 Evaluation Software V3.0.1 (Uppsala, Sweden) to characterise further the binding to these receptors.
(§5) As with the single cycle kinetics, receptor binding was assessed in two separate experiments. In the first set of experiments binding to hTNFR1 (Fc2), hTNFR2 (Fc3) and mTNFR1 (Fc4) was assessed. In the second set of experiments the extent of mTNF2 (Fc4) binding was assessed using hTNFR1 (Fc2) and hTNFR2 (Fc3) as controls. All receptors were diluted in running buffer to a concentration of ˜4 μg/mL and at the start of each cycle loaded onto Fc2, Fc3 and Fc4 of a Protein A CM5 chip and captured at a flow rate of 10 μL/min to give an RU of ˜40-100. The surface was then allowed to stabilise. All kinetic data was obtained using a flow rate of 75 μl/min to minimise any potential mass transfer effects. […] The association phase of TNF was monitored for 280 seconds and the dissociation phase was measured for 2100 seconds. […] Regeneration of the Protein A surface was conducted using two injections of 10 mM glycine-HCL pH 1.5 at the end of each cycle. The signal from the reference channel Fc1 was subtracted from that of Fc2, Fc3 and Fc4 to correct for differences in non-specific binding to a reference surface, and a global Rmax parameter was used in the 1-to-1 binding model.
Molecule B1 gave an equilibrium dissociation constant (Kd) of 0.11 nM.

Regarding B2, the affinity, expressed as Kd, was 0.339 nM.

The molecule B3 returned a Kd of 0.462 nM.

Regarding B4, the affinity, expressed as Kd, was 0.0465 nM. Against the preceding molecule, the Kd is about 9.9-fold lower.

The molecule B5 gave a Kd of 0.0306 nM.

On to B6, for which the Kd turned out to be 0.0591 nM.

The next assay has as its target T2, Fc tagged mouse TNFR1 (Sino Biological). Described as above. As for the experimental part: as §4, §5
As to B1, the Kd is 0.153 nM.

In turn, B2 yielded a Kd of 0.59 nM.

In turn, B3 showed a Kd of 5.08 nM. Compared with the last molecule, the Kd is about 8.6-fold higher.

With B4, the Kd turned out to be 0.208 nM.

B5 showed a Kd of 0.208 nM.

As to B6, the Kd turned out to be 0.289 nM. This Kd and that of the molecule before are within 1.5-fold of each other.

For the next assay, the target named is T1, Fc tagged human TNFR1 (Sino Biological). Briefly: SPR, Biacore single cycle kinetics, stability study, after 1 year at -80° C. The protocol: as §2, §3
B2 returned a Kd of 0.0667 nM.

Take B3: the affinity, expressed as Kd, was 0.023 nM.

B4: the Kd is 0.0353 nM. Compared with the last molecule, the Kd is about 1.5-fold higher.

Molecule B6 showed a Kd of 0.0446 nM.

The next assay deals with T2, Fc tagged mouse TNFR1 (Sino Biological). The assay is described as above. The protocol: as §2, §3
As for B2, the Kd amounted to 0.0474 nM.

B3 registered a Kd of 0.398 nM.

B4 yielded a Kd of 0.165 nM.

As to B6, binding was put at a Kd of 0.0977 nM.

The target in another assay is T1, Fc tagged human TNFR1 (Sino Biological). The experiment in a line: SPR, Biacore single cycle kinetics, stability study, after 1 year at -20° C. The protocol: as §2, §3
As for B2, binding was put at a Kd of 0.0526 nM.

For B3, the Kd is 0.0271 nM.

The molecule B4 showed a Kd of 0.0262 nM.

Turning to B6, the affinity, expressed as Kd, was 0.0493 nM.

A further assay deals with T2, Fc tagged mouse TNFR1 (Sino Biological). Described as above. As for the experimental part: as §2, §3
As for B2, binding was put at a Kd of 0.711 nM.

The molecule B3 displayed a Kd of 0.527 nM.

B4 registered a Kd of 0.111 nM.

With B6, the Kd was 0.115 nM.

In another assay the target is T3, Fc tagged mouse TNFR2 (Sino Biological). Briefly: SPR (Biacore T200) single cycle kinetics, Fc-tagged receptor captured on Protein A chip, TNF protein as analyte at 1.67-15 nM. The protocol:
as §1, §2
(§6) Controls were used to ensure the integrity of the receptors during the Biacore run.
For B7, the binding result was “binds”.

Turning to B1, the binding result is listed as “no binding (tested: 15 nM)”.

Take B2: the binding result is “no binding (tested: 15 nM)”.

For B4, the binding result is on record as “no binding (tested: 15 nM)”.

B5: the binding result is “no binding (tested: 15 nM)”.

As to B6, the binding result is listed as “no binding (tested: 15 nM)”.

The next assay addresses T4, Fc tagged human TNFR2 (Sino Biological). Described as above. The protocol:
as §1, §2, §6
For B7, the binding result is recorded as “binds”.

For B2, the binding result was “no binding (tested: 15 nM)”.

Take B3: the binding result is on record as “no binding (tested: 15 nM)”.

For the molecule B4, the binding result is “no binding (tested: 15 nM)”.

With B5, the binding result is on record as “no binding (tested: 15 nM)”.

With B6, the binding result is listed as “no binding (tested: 15 nM)”.

For orientation: Kd means the equilibrium constant for the complex coming apart.
